The record followed here is the nanobody polyreactivity screen of Harvey et al. (2022).

The nature of this series: yeast display, Sf9 membrane polyspecificity reagent, FACS + sequencing; frameworks hold sequencing errors. The method, boiled down:
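Polyreactivity labels are assigned by the sorting gate from which each nanobody was recovered. The gates were low and high (top ~1%), set on anti-HA fluorescence for expression and streptavidin fluorescence for reagent binding. Before sorting, galactose-induced (36–48 hours) yeast display cells were stained for 1 hour at 4 °C with 10% biotinylated, detergent-solubilized Sf9 membrane reagent.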
Take “QVQLVESRGGLVQAGGSLRLSCAASGRIFASYTMGWYRQAHGKERELVAAISWRGDGTYYADSVKGRFTISRDNAKNTVYLQMNSLKPEDTAVYYCAADYVYYYHEYDYWGQGTQVTVSS”: the “polyreactivity (PSR sort gate)” value is listed as “low polyreactivity”. “QVQLVESRGGLVQAGGSLRLSCAASGRIFSWYSMGWYRQPPGTERELVAGISWIGGSTYYADSVKGRFTFSRDNAKNTVYLQMISLKPEDTAVYYCNAEYFGEYRDYGYWGQGTQVTVSS”: the “polyreactivity (PSR sort gate)” value is reported as “low polyreactivity”. Take “QVQLVESRGGLVQAGGSLRLSCAASGRNFRFNAMGWYRQEPGKERELVAAISASGGITYYADSVKGRFTISRDNAKNTVYLQMNSLKPEDSAVYYCAADLYATWSYFFTWLDNWGQGTQVTVSS”: the “polyreactivity (PSR sort gate)” value is “high polyreactivity”. Consider “QVQLVESRGGLVQAGGSLRLSCAASGRTFSNAMGWYRQAPGNERELVADISSGGSTNYADSVKGRFTISRDNAKNTVYLQMNSLKPEDTAVYYCAAVSGSRYGYSDDYWGQGTQVTVSS”, for which the “polyreactivity (PSR sort gate)” value is listed as “low polyreactivity”. To “QVQLVESRGGLVQAGGSLRLSCAASGRTFWYKAMGWYRQAPGKERELVAAISKSAAITYYADSVKGRFTISRDNAKNTVYLQMNSLKPEDTAVYYCNAGVRAVNRKYDYWGQGTQVTVSS” belongs “high polyreactivity”; to “QVQLVESRGGLVQAGGSLRLSCAASGSIFLYYARGRSRQSPGKERELVAAIRRGGNTNYADSVKGRFTISRDNAKNTVYLQLNSLKPEDTAVYYCAAAQYSRYSRVPNYYAGTYYYWGQGTQVTVSS”, “low polyreactivity”. Take “QVQLVESRGGLVQAGGSLRLSCAASGSIFPFYAKGWYRQAPGKEREFVASISSGGSTNYADSVKGRFTISRDNAKNTVYLQMNSLKPEDTAVYYCNADVPYRWDTWFQVVYPESYDYWGQGTQVTVSS”: the “polyreactivity (PSR sort gate)” value was “low polyreactivity”. As for “QVQLVESRGGLVQAGGSLRLSCAASGSIFRSNGMGWYRQPPGTERELVAAIRTSGGSTNYADSVKGRFTISRDNAKNTVSLQMNSLKPEDTAVYYCNTRDRGLGMMEYWGQGTQVTVSS”, the “polyreactivity (PSR sort gate)” value is “low polyreactivity”.

As for “QVQLVESRGGLVQAGGSLRLSCAASGSIFWLYAMGLYRQAPGKERELVAAIDSGDSTKYADSVKGRFTISRDNAKNTVYLQMNSLKREDTAVYYCNASRRYHVLAPYDYWGQGTQVTVSS”, the “polyreactivity (PSR sort gate)” value is listed as “low polyreactivity”.

For “QVQLVESRGGLVQAGGSLRLSCAASGSIFYDNAMGWYRQAPWKEREFVAAISLRTGRTYYADSVKGRFTISRDNAKNTVYLQMNSLKPEDTAVFYCAARGYYGPKYYYWGQGTQVTVSS”, the “polyreactivity (PSR sort gate)” value is reported as “high polyreactivity”. Turning to “QVQLVESRGGLVQAGGSLRLSCAASGSTFRRYAMGWYRQAPGKERELVAAITTRGGSTYYADSVKGRFTISRDNAKNTVYLQMNSLKPEDTAVYYCARDYSTYLRTAGDYWGQGTQVTVSS”, the “polyreactivity (PSR sort gate)” value is reported as “low polyreactivity”. Turning to “QVQLVESRGGLVQAGGSLRLSCAASGSTFYLNVMGWYIQAPGKERELVAAITYRGGRTSYADSVKGRFTISRDNAKNTVYLQMISLKPEDTAVYYCATPKYYGYYYWGHGTQVTVSS”, the “polyreactivity (PSR sort gate)” value is given as “high polyreactivity”. Regarding “QVQLVESRGGLVQAGGSLRLSCAASGSTFYRYAMAWYRQAPGKERELVARINTGGSTSYADSVKGRFTISRDNAKNTVYLQMNILKPEDTAVYYCAASSRYAVFGRYYYCGQGTQVTVSS”, the “polyreactivity (PSR sort gate)” value is given as “high polyreactivity”. Regarding “QVQLVESRGGLVQAGGSLRLSCAASGYAMGWYRQAPGKERELVAAITSGGSTNYADSVKGRFTISRDNAKNTVYLQMNSLKPVDTAVYYCAAAYSLYGHRYDYWGQGTQVTVSS”, the “polyreactivity (PSR sort gate)” value is “high polyreactivity”. To “QVQLVESRGGLVQAGGSLRLSCAASGYIFGYTVMGWYRQAPGTERELVATITRGGDTNYADSVKGGFTISRDNAKNTVYLQMNSLKPEDSSVYYCAAEPVAYYGSSYGYWGQGTQVTVSS” belongs “low polyreactivity”.

As to “QVQLVESRGGLVQAGGSLRLSCAASRSIFNINTMGWYRQAPGKERELVAAISYSGGSTYYADSVKGRFTISRDNAKNTVYLQKNSLKREDTAVYYCNVSPTTSGDGGGYDSWGQGTKVTVSS”, the “polyreactivity (PSR sort gate)” value is given as “low polyreactivity”. To “QVQLVESRGGLVQAGGSLRLSCAASVSIVGIYVMGRYRQAPGKERELVAGISTRGGSTYYADSVKGRFTIARDNAKNTVYLQMNSLKPEDTAVYYCAVRAWDPYTGKSDYWGQGTQVTVSS” belongs “low polyreactivity”.

As for “QVQLVESRGGLVQAGGSLRLSCPASGYIFYRNAMGWYRQEPGKERELVAAITYTGGRTYYPDSVKGRFTISRDNAKNTVYLQMNSLNPEDTAVYYCNADGRVFVVRPYYDYEYWGQGTQVTVSS”, the “polyreactivity (PSR sort gate)” value is reported as “low polyreactivity”.

In the case of “QVQLVESRGGLVQAGGSLRLTCAASGFTFGFYGMGWYRPAPGKERELVARITWRSGSTYYADSVKGRFTISRDNAKNSVYLKLNSLKPEDTAVYSCAADGFSYYVIRFDYWGQGTQVTVSS”, the “polyreactivity (PSR sort gate)” value is given as “low polyreactivity”.

Consider “QVQLVESRGGLVQAGGSLSLSCAASGRIFYIYDMGWYRQAPGKERELVAAISTSGGSTFYADSVKGRFTISRDNAKNTVYLQMNSLKPEDTAVYYCAARFRYYGSEYDYWGQGTQVSVSS”, for which the “polyreactivity (PSR sort gate)” value is “low polyreactivity”. For “QVQLVESRGGLVQARGSLRLSSAASGRIFSDYAMGCYRQAPGKERDLVATISGGITNYADSVKGRFTISRDNANNTVYLQMNSLKPEDTAVYYCATVDGAYQYTYDYWGEGTQVTVSS”, the “polyreactivity (PSR sort gate)” value was “low polyreactivity”. “QVQLVESRGGLVQEGGSLRLSCAASGRIFSVYAMGSYRQEPGKERELVASISSGGSTYYADSVMWRFTISRDNAKNTVYLQRTSQKAEDTAVYYCAAGYWTTFRSIYDYWGQGTQVTVSS”: the “polyreactivity (PSR sort gate)” value is “low polyreactivity”.

Turning to “QVQLVESRGRLVQAGGTLRLSCAASGNITSVYAMGWYRQAPGNERELVAAISGSGGSTYYADSVKGRFTISRDNAMNTVYLQMNSLKPEDTAVYYCAKGFQYQGNSYGYWGQGSQVTVSS”, the “polyreactivity (PSR sort gate)” value is listed as “low polyreactivity”.

For the sequence “QVQLVESRGVLVQAGGSLRLSCAASGYIFAPYAMGWYRPAPGKERELVSAISWRGGSTYYADSVKGRFTISRDNAKITVYLQMNSLKPVDTAVYFCAAQGYGSGLSYYRFDFWGLGTQVTVSS”, the “polyreactivity (PSR sort gate)” value is “high polyreactivity”. “QVQLVESRRGLVPAGGSLRLSCARCGITVPAYAMGWYRQAPGKERELVASISRRGGSTYYADSVKGRFTISRDNAKNTVYLQINSLKPVDTAVYYCNADIKQRSDRYDYWGQGTQVTVSS”: the “polyreactivity (PSR sort gate)” value is “high polyreactivity”. Take “QVQLVESRRGLVQAGGSLRLSCAASGFTFYIYAMGWYRQAPGKERELVAAIIFRGGSTYYADSVKGRFTISRDNAKNTVYLQMNSLKREDTAVYYCAAVPRTYSGYYYWGHGTQVTVSS”: the “polyreactivity (PSR sort gate)” value was “high polyreactivity”. As for “QVQLVESSGGLVQAGGSLRLSCAASGLTFKRYAMGWYRQAPGKERELVAAINSGGSTNYADSVKGRFTISRDNAKNTVYLQMNSLKPEDTAVYDCAASTSRYYWYALRDYWGQGTQVTVSS”, the “polyreactivity (PSR sort gate)” value is “high polyreactivity”. On to “QVQLVESSGGLVQAGVSLRLSFAASGRIILNYPIGLYRKAPGKERELVAAITSDGSRSYADSVKGRFTISRDNAKNSVYLQMKSLKPEDTAVYYCANDFFEHSRVSHTYSSSKYDYGGQGTQVTVSS”, for which the “polyreactivity (PSR sort gate)” value is “low polyreactivity”. Turning to “QVQLVESVGGFVQAGGSLRLSCAASGRTFGRYAMGWYRQAPGKEWELVAAITRSGSSTYYADSVKGRFTISRDNAKNTVYLQMNSMKPEDTAVYYCAALYGPFYSTGEYWGQGTQVTVSS”, the “polyreactivity (PSR sort gate)” value is listed as “high polyreactivity”. As for “QVQLVESVGGLDQAGGSLRFICASSAHTISSYAMGWYRQAPGKERELVAAISVSATRTYYADSVKGRFTISRDNAKNTVYLQMSSLNPEDPAVYYFAARPVQFTYGYWGQGTQVTVSS”, the “polyreactivity (PSR sort gate)” value is given as “high polyreactivity”.

“QVQLVESVGGLDQAGGSLRLSCAASGFTFDINTMGWYRQEPGKERELVAAITYSGGSTYYADSVKGRFTISRDNAKNTVYLQMNSLKPEDTAVYYCATTWYFVASWYVAIYDYWGQGTQVTVSS”: the “polyreactivity (PSR sort gate)” value was “low polyreactivity”. For “QVQLVESVGGLDQAGGSLRLSCAASGRIIAWYPMGWYRQSPGKERELVAAISWNGGRTYYADSVKGRFTISRDNAKNTVYLQINSLKPEDTAVYYCAAGKTPQKYGGFNSWGQGTQVTVSS”, the “polyreactivity (PSR sort gate)” value was “high polyreactivity”.

Turning to “QVQLVESVGGLDQAGGTLRLSCAASGSTFKYNGMGWYRQAPGKERELVAAISWRAGSTYADSVKGRFTISRDNAKNTVYLLMYSLKPEDTEVYYCAARLKYWGDYYYWGQGTQVTVSS”, the “polyreactivity (PSR sort gate)” value is on record as “low polyreactivity”. As for “QVQLVESVGGLDQAGVSLRLSSAASGSTFGSYVMGWYRQSPGKERELVASISDGGITNYADSVKGRFTISRDNAKNTVYLQMNSLNPEDTAVYYCAAATRPFSDYTTEGYYYWGQGTQVTVSS”, the “polyreactivity (PSR sort gate)” value was “low polyreactivity”.

With “QVQLVESVGGLFQAGGSLRLSCAASGSIFAYNTMGWYRQAPGKEREFVAAISWRGGSTYYADSVKGHFTISGDNAKNTFYLQMNSLKPEDTAVYYCNARYRNTFYSRRYDYWGQGTQVTVSS”, the “polyreactivity (PSR sort gate)” value is on record as “low polyreactivity”. To “QVQLVESVGGLGQAGGSLRLSCAASGYIFRPDAMGWYRQEPGKERELVAVISSGGSTYYADSVKGRFTISRDNAKNTVYLQMNSLKPEDTAVYYCNRTLPSIGGTTYEYWRQGTQVTVSS” belongs “low polyreactivity”; to “QVQLVESVGGLVKAGGSLRLSCAASGFIFYRYTMGWYRQDPGKERELVAGISSRGTRTYYADSVKGRFTISRDNAKNTVYLQMNSLKPEDTAVYYCAAVLTQPKKVNYWGQGTQVTVSS”, “high polyreactivity”; to “QVQLVESVGGLVQAGASHRLSCAASGLNFFKYTMGWYIQAPGKERELVAAISRRGGSTYYADSVKGRFTISRDNAKNTVYLQMNSLKPDDTAVYYCNKRLGTGYYYGYDYWGQGTQVTGSS”, “high polyreactivity”.

Take “QVQLVESVGGLVQAGASLRLSCAASGGTFPVYAMGWYRQAPGKEREMVAAISYSGVTTYYADSVKGRFTISRDNAKNTVYLQMNSLKPDDTAVYYCNADWRRWYIFSYDYWGQGTLVTVSS”: the “polyreactivity (PSR sort gate)” value was “low polyreactivity”.

Regarding “QVQLVESVGGLVQAGASLRLSCAASGITFVYYALGWYRQAPGKERELVAAITSTGGSTYYADSVKGRFTISRDNAKNTVYLQMNSLKPEDTSVYYCAAVPRGTQGAMDYWGQGTQVTVSS”, the “polyreactivity (PSR sort gate)” value is given as “low polyreactivity”. For the sequence “QVQLVESVGGLVQAGGNLRLSCAASGIIFSRYALGWYRQAPGKERELVAAITRSGGDTYYADSVKGRFTISRDHAKNTVYLQMNSLKPEDTAVYYCAADRTWYPWVATGYYWGHGTQVTVSS”, the “polyreactivity (PSR sort gate)” value was “low polyreactivity”.
